Test system: Escherichia coli TOP10
Assay: shrunken log2 fold change of peptide-encoding DNA abundance (4.5 h post-induction vs induction); higher = less antimicrobial activity (less host growth inhibition)
Conditions: time post-induction: 4.5 h; library: site-saturation at positions 5, 18, 19, 20
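Note: peptides expressed intracellularly from a pBAD plasmid library in pooled LB shake-flask culture, induced with 0.3% L-arabinose, DNA abundance read by NGS, three biological replicates, DESeq2 with apeglm shrinkage.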

Sequence	shrunken log2 fold change
RRIRKRPPRLPRPRPRPWTQPRP	0.0628
RRIRNRPPRLPRPRPRPYHQPRP	-0.308
RRIRNRPPRLPRPRPRPRTEPRP	-0.279
RRIRWRPPRLPRPRPRPPKNPRP	0.757
RRIRTRPPRLPRPRPRPDTGPRP	-0.0906
RRIRCRPPRLPRPRPRPYMMPRP	-0.293
RRIRGRPPRLPRPRPRPSGAPRP	0.688
RRIRYRPPRLPRPRPRPGDDPRP	-0.286
RRIRFRPPRLPRPRPRPANKPRP	-0.546
RRIRFRPPRLPRPRPRPFPMPRP	-0.0754
RRIRDRPPRLPRPRPRPPMLPRP	-0.0165
RRIRSRPPRLPRPRPRPLREPRP	0.369
RRIRIRPPRLPRPRPRPRDEPRP	0.27
RRIRFRPPRLPRPRPRPPSNPRP	0.324
RRIRCRPPRLPRPRPRPSPWPRP	0.0328
RRIRQRPPRLPRPRPRPHAGPRP	-0.084
RRIRARPPRLPRPRPRPNLHPRP	0.0181
RRIRTRPPRLPRPRPRPCVNPRP	-0.0913
RRIRERPPRLPRPRPRPYHIPRP	-0.212
RRIRARPPRLPRPRPRPNRFPRP	0.145
RRIRCRPPRLPRPRPRPDVMPRP	-0.101
RRIRRRPPRLPRPRPRPCPSPRP	0.0616
RRIRCRPPRLPRPRPRPWVIPRP	-0.11
RRIRCRPPRLPRPRPRPCHLPRP	-0.206
RRIRIRPPRLPRPRPRPHWVPRP	-0.0146

Sequence	shrunken log2 fold change
RRIRDRPPRLPRPRPRPWRAPRP	0.132
RRIRARPPRLPRPRPRPIYAPRP	0.144
RRIRWRPPRLPRPRPRPCQRPRP	1.03
RRIRVRPPRLPRPRPRPQEKPRP	0.0369
RRIRHRPPRLPRPRPRPNNPPRP	-0.874
RRIRGRPPRLPRPRPRPPRLPRP	0.702
RRIRFRPPRLPRPRPRPAEGPRP	0.234
RRIRQRPPRLPRPRPRPNIMPRP	-0.462
RRIRQRPPRLPRPRPRPILPPRP	0.0747
RRIRCRPPRLPRPRPRPLGVPRP	0.0123
RRIRKRPPRLPRPRPRPNNMPRP	-0.304
RRIRSRPPRLPRPRPRPWPYPRP	-0.03
RRIRQRPPRLPRPRPRPWCWPRP	0.304
RRIRIRPPRLPRPRPRPIFWPRP	0.397
RRIRFRPPRLPRPRPRPIPHPRP	-0.31
RRIRGRPPRLPRPRPRPSWQPRP	0.109
RRIRIRPPRLPRPRPRPKHAPRP	-0.126
RRIRVRPPRLPRPRPRPEIDPRP	0.135
RRIRIRPPRLPRPRPRPMNNPRP	-0.465
RRIRIRPPRLPRPRPRPCLGPRP	-0.157
RRIRIRPPRLPRPRPRPVMKPRP	0.012
RRIRYRPPRLPRPRPRPACRPRP	-0.077
RRIRNRPPRLPRPRPRPWCAPRP	-0.0696
RRIRGRPPRLPRPRPRPRYQPRP	0.615
RRIRQRPPRLPRPRPRPMLSPRP	-0.0514

Sequence	shrunken log2 fold change
RRIRFRPPRLPRPRPRPCADPRP	-0.102
RRIRRRPPRLPRPRPRPLMWPRP	0.163
RRIRPRPPRLPRPRPRPHKNPRP	-0.0554
RRIRLRPPRLPRPRPRPPMTPRP	0.907
RRIRWRPPRLPRPRPRPYCRPRP	-0.295
RRIRDRPPRLPRPRPRPACNPRP	0.0741
RRIRKRPPRLPRPRPRPYEIPRP	-0.0117
RRIRLRPPRLPRPRPRPHCHPRP	-0.727
RRIRVRPPRLPRPRPRPQVSPRP	0.0417
RRIRLRPPRLPRPRPRPRNIPRP	-0.424
RRIRARPPRLPRPRPRPMSAPRP	0.361
RRIRSRPPRLPRPRPRPHHIPRP	-1.12
RRIRNRPPRLPRPRPRPFLDPRP	-0.358
RRIRCRPPRLPRPRPRPVVGPRP	-0.0604
RRIRSRPPRLPRPRPRPPFVPRP	0.148
RRIRCRPPRLPRPRPRPAEEPRP	-0.314
RRIRKRPPRLPRPRPRPWAKPRP	0.0651
RRIRCRPPRLPRPRPRPNHYPRP	-0.825
RRIRQRPPRLPRPRPRPSHAPRP	-0.107
RRIRNRPPRLPRPRPRPMNHPRP	0.0515
RRIRNRPPRLPRPRPRPPPHPRP	0.794
RRIRMRPPRLPRPRPRPKITPRP	0.19
RRIRQRPPRLPRPRPRPFIYPRP	-0.372
RRIRVRPPRLPRPRPRPIMPPRP	-0.535
RRIRDRPPRLPRPRPRPQSGPRP	-0.136

— the supplement of paper PMC9112550, “Optimization of the antimicrobial peptide Bac7 by deep mutational scanning” (BMC Biology, 2022)
